Sequences and labels used below:
B1: DNA polymerase delta subunit 3 (Homo sapiens), Q15054 (parent)
chain: MADQLYLENIDEFVTDQNKIVTYKWLSYTLGVHVNQAKQMLYDYVERKRKENSGAQLHVTYLVSGSLIQNGHSCHKVAVVREDKLEAVKSKLAVTASIHVYSIQKAMLKDSGPLFNTDYDILKSNLQNCSKFSAIQCAAAVPRAPAESSSSSKKFEQSHLHMSSETQANNELTTNGHGPPASKQVSQQPKGIMGMFASKAAAKTQETNKETKTEAKEVTNASAAGNKAPGKGNMMSNFFGKAAMNKFKVNLDSEQAVKEEKIVEQPTVSVTEPKLATPAGLKKSSKKAEPVKVLQKEKKRGKRVALSDDETKETENMRKKRRRIKLPESDSSEDEVFPDSPGAYEAESPSPPPPPSPPLEPVPKTEPEPPSVKSSSGENKRKRKRVLKSKTYLDGEGCIVTEKVYESESCTDSEEELNMKTSSVHRPPAMTVKKEPREERKGPKKGTAALGKANRQVSITGFFQRK

In this experiment the parent is B1. As to conditions: with pcna_human PCNA.
For the variant K320N;R321G;R322G, the “effect of a mutation on the interaction” value was “disrupting interaction”.

Values taken from IntAct's records for PubMed 16000169.
